Measured values reported in patent US20260232769A1 (WUXI BIOLOGICS IRELAND, published 2026).

T1: IL-2Rβ/γc complex (intermediate affinity receptor) on primary human CD8+ T cells (human, UniProt P14784 27-551; P31785 23-369)
T1 sequence (looked up) 1: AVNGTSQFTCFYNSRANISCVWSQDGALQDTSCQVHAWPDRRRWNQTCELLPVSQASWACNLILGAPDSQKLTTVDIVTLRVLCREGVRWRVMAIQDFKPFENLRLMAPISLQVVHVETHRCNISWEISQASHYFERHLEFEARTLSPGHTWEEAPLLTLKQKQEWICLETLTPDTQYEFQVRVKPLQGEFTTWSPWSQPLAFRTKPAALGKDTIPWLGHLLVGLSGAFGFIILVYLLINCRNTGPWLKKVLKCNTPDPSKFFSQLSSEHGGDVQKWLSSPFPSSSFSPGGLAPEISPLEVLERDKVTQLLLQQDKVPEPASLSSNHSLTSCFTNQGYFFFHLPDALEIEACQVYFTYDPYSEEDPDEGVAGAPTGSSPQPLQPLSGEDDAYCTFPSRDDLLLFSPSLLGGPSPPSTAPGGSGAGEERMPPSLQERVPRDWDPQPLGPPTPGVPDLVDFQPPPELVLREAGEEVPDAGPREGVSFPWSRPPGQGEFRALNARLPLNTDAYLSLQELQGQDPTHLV
T1 sequence (looked up) 2: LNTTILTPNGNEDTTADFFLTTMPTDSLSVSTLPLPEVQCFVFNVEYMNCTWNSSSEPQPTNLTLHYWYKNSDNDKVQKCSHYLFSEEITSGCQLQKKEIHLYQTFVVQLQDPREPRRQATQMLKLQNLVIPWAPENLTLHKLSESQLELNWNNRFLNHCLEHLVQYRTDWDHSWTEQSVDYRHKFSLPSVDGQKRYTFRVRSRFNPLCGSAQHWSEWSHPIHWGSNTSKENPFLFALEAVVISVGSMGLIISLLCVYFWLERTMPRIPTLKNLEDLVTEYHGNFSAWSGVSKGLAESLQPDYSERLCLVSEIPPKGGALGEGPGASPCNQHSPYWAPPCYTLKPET


Molecular target: T1, IL-2Rβ/γc complex (intermediate …)
Experiment: cell-based or functional assay

Binder | Potency reduction, pSTAT5, human primary CD8+ T [fold] | pSTAT5 EC50, human primary CD8+ T [nM]
W3XX115-T2U0.E44-44.uIgG4V322 (Fc fusion) APTSSSTKKTQLQLEHLLLDLQMILNGINNYKNPKLTRMLTFKFYMPKKATGLKHLQCLEEELKPLEEVLNLAQSKNFHLRPRDLISNINVIVLELKGSETTFMCEYADETATIVEFLNRWITFCQSIIESKYGPPCPPCPAPEAAGGPSVFLFPPKPKDTLMISRTPEVTCVVVDVSQEDPEVQFNWYVDGVEVHNAKTKPREEQFNSTYRVVSVLTVLHQDWLNGKEYKCKVSNKGLPSSIEKTISKAKGQPREPQVYTLPPCQEEMTKNQVSLWCLVKGFYPSDIAVEWESNGQPENNYKTTPPVLDSDGSFFLYSRLTVDKSRWQEGNVFSCSVMHEALHNHYTQKSLSLSLG heavy: EIQLQQSGPELVKPGASVKVSCKASGYSFTDYNMYWVKQSHGESLEWIGYIDPYNGGTRYNQKFKGKATLTVDKSSSTAFMHLNSLTSEDSAVYYCARNGHWDGAWFAYWGQGTLVTVSAASTKGPSVFPLAPCSRSTSESTAALGCLVKDYFPEPVTVSWNSGALTSGVHTFPAVLQSSGLYSLSSVVTVPSSSLGTKTYTCNVDHKPSNTKVDKRVESKYGPPCPPCPAPEAAGGPSVFLFPPKPKDTLMISRTPEVTCVVVDVSQEDPEVQFNWYVDGVEVHNAKTKPREEQFNSTYRVVSVLTVLHQDWLNGKEYKCKVSNKGLPSSIEKTISKAKGQPREPQVCTLPPSQEEMTKNQVSLSCAVKGFYPSDIAVEWESNGQPENNYKTTPPVLDSDGSFFLVSRLTVDKSRWQEGNVFSCSVMHEALHNHYTQKSLSLSLG light: DIQMNQSPSSLSASLGDTITITCHASQNINVWLSWYQQKPGNIPKLLIYKASNLHTGVPSRFSGSRSGTGFTLTISSLQPEDIATYYCHQGQSYPFTFGSGTKLEIKRTVAAPSVFIFPPSDEQLKSGTASVVCLLNNFYPREAKVQWKVDNALQSGNSQESVTEQDSKDSTYSLSSTLTLSKADYEKHKVYACEVTHQGLSSPVTKSFNRGEC | 11.3 | 86.2
W3XX115-T2U0.E44-45.uIgG4V322 (Fc fusion) APTSSSTKKTQLQLEHLLLDLQMILNGINNYKNPKLTRMLTFKFYMPKKATELKHLQCLEEELKPLEEVLNLAQSRNFHLRPRDLISNINVIVLELKGSETTFMCEYADETATIVEFLNRWITFCQSIIESKYGPPCPPCPAPEAAGGPSVFLFPPKPKDTLMISRTPEVTCVVVDVSQEDPEVQFNWYVDGVEVHNAKTKPREEQFNSTYRVVSVLTVLHQDWLNGKEYKCKVSNKGLPSSIEKTISKAKGQPREPQVYTLPPCQEEMTKNQVSLWCLVKGFYPSDIAVEWESNGQPENNYKTTPPVLDSDGSFFLYSRLTVDKSRWQEGNVFSCSVMHEALHNHYTQKSLSLSLG heavy: EIQLQQSGPELVKPGASVKVSCKASGYSFTDYNMYWVKQSHGESLEWIGYIDPYNGGTRYNQKFKGKATLTVDKSSSTAFMHLNSLTSEDSAVYYCARNGHWDGAWFAYWGQGTLVTVSAASTKGPSVFPLAPCSRSTSESTAALGCLVKDYFPEPVTVSWNSGALTSGVHTFPAVLQSSGLYSLSSVVTVPSSSLGTKTYTCNVDHKPSNTKVDKRVESKYGPPCPPCPAPEAAGGPSVFLFPPKPKDTLMISRTPEVTCVVVDVSQEDPEVQFNWYVDGVEVHNAKTKPREEQFNSTYRVVSVLTVLHQDWLNGKEYKCKVSNKGLPSSIEKTISKAKGQPREPQVCTLPPSQEEMTKNQVSLSCAVKGFYPSDIAVEWESNGQPENNYKTTPPVLDSDGSFFLVSRLTVDKSRWQEGNVFSCSVMHEALHNHYTQKSLSLSLG light: DIQMNQSPSSLSASLGDTITITCHASQNINVWLSWYQQKPGNIPKLLIYKASNLHTGVPSRFSGSRSGTGFTLTISSLQPEDIATYYCHQGQSYPFTFGSGTKLEIKRTVAAPSVFIFPPSDEQLKSGTASVVCLLNNFYPREAKVQWKVDNALQSGNSQESVTEQDSKDSTYSLSSTLTLSKADYEKHKVYACEVTHQGLSSPVTKSFNRGEC | 31.4 | 240
W3XX115-T2U0.E44-46.uIgG4V322 (Fc fusion) APTSSSTKKTQLQLEHLLLDLQMILNGINNYKNPKLTRMLTFKFYMPKKATELKHLQCLEEELKPLEEVLNLAQSKNGHLRPRDLISNINVIVLELKGSETTFMCEYADETATIVEFLNRWITFCQSIIESKYGPPCPPCPAPEAAGGPSVFLFPPKPKDTLMISRTPEVTCVVVDVSQEDPEVQFNWYVDGVEVHNAKTKPREEQFNSTYRVVSVLTVLHQDWLNGKEYKCKVSNKGLPSSIEKTISKAKGQPREPQVYTLPPCQEEMTKNQVSLWCLVKGFYPSDIAVEWESNGQPENNYKTTPPVLDSDGSFFLYSRLTVDKSRWQEGNVFSCSVMHEALHNHYTQKSLSLSLG heavy: EIQLQQSGPELVKPGASVKVSCKASGYSFTDYNMYWVKQSHGESLEWIGYIDPYNGGTRYNQKFKGKATLTVDKSSSTAFMHLNSLTSEDSAVYYCARNGHWDGAWFAYWGQGTLVTVSAASTKGPSVFPLAPCSRSTSESTAALGCLVKDYFPEPVTVSWNSGALTSGVHTFPAVLQSSGLYSLSSVVTVPSSSLGTKTYTCNVDHKPSNTKVDKRVESKYGPPCPPCPAPEAAGGPSVFLFPPKPKDTLMISRTPEVTCVVVDVSQEDPEVQFNWYVDGVEVHNAKTKPREEQFNSTYRVVSVLTVLHQDWLNGKEYKCKVSNKGLPSSIEKTISKAKGQPREPQVCTLPPSQEEMTKNQVSLSCAVKGFYPSDIAVEWESNGQPENNYKTTPPVLDSDGSFFLVSRLTVDKSRWQEGNVFSCSVMHEALHNHYTQKSLSLSLG light: DIQMNQSPSSLSASLGDTITITCHASQNINVWLSWYQQKPGNIPKLLIYKASNLHTGVPSRFSGSRSGTGFTLTISSLQPEDIATYYCHQGQSYPFTFGSGTKLEIKRTVAAPSVFIFPPSDEQLKSGTASVVCLLNNFYPREAKVQWKVDNALQSGNSQESVTEQDSKDSTYSLSSTLTLSKADYEKHKVYACEVTHQGLSSPVTKSFNRGEC | 7.6 | 58.4
W3XX115-T2U0.E44-47.uIgG4V322 (Fc fusion) APTSSSTKKTQLQLEHLLLDLQMILNGINNYKNPKLTRMLTFKFYMPKKATELKHLQCLEEELKPLEEVLNLAQSKNFHLRYRDLISNINVIVLELKGSETTFMCEYADETATIVEFLNRWITFCQSIIESKYGPPCPPCPAPEAAGGPSVFLFPPKPKDTLMISRTPEVTCVVVDVSQEDPEVQFNWYVDGVEVHNAKTKPREEQFNSTYRVVSVLTVLHQDWLNGKEYKCKVSNKGLPSSIEKTISKAKGQPREPQVYTLPPCQEEMTKNQVSLWCLVKGFYPSDIAVEWESNGQPENNYKTTPPVLDSDGSFFLYSRLTVDKSRWQEGNVFSCSVMHEALHNHYTQKSLSLSLG heavy: EIQLQQSGPELVKPGASVKVSCKASGYSFTDYNMYWVKQSHGESLEWIGYIDPYNGGTRYNQKFKGKATLTVDKSSSTAFMHLNSLTSEDSAVYYCARNGHWDGAWFAYWGQGTLVTVSAASTKGPSVFPLAPCSRSTSESTAALGCLVKDYFPEPVTVSWNSGALTSGVHTFPAVLQSSGLYSLSSVVTVPSSSLGTKTYTCNVDHKPSNTKVDKRVESKYGPPCPPCPAPEAAGGPSVFLFPPKPKDTLMISRTPEVTCVVVDVSQEDPEVQFNWYVDGVEVHNAKTKPREEQFNSTYRVVSVLTVLHQDWLNGKEYKCKVSNKGLPSSIEKTISKAKGQPREPQVCTLPPSQEEMTKNQVSLSCAVKGFYPSDIAVEWESNGQPENNYKTTPPVLDSDGSFFLVSRLTVDKSRWQEGNVFSCSVMHEALHNHYTQKSLSLSLG light: DIQMNQSPSSLSASLGDTITITCHASQNINVWLSWYQQKPGNIPKLLIYKASNLHTGVPSRFSGSRSGTGFTLTISSLQPEDIATYYCHQGQSYPFTFGSGTKLEIKRTVAAPSVFIFPPSDEQLKSGTASVVCLLNNFYPREAKVQWKVDNALQSGNSQESVTEQDSKDSTYSLSSTLTLSKADYEKHKVYACEVTHQGLSSPVTKSFNRGEC | 27.6 | 211
W3XX115-T2U0.E44-6.uIgG4V322 (Fc fusion) APTSSSTKKTQLQLEHLLLDLQMILNGINNYKNPKLTRMLTFKFYMPKKATELKHLQCLEEELKPLEEVLNLAQSKNFHLRPRDLISNINVIVLELKGSETTFMCEYADETATIVEFLNRWITFCQSIIESKYGPPCPPCPAPEAAGGPSVFLFPPKPKDTLMISRTPEVTCVVVDVSQEDPEVQFNWYVDGVEVHNAKTKPREEQFNSTYRVVSVLTVLHQDWLNGKEYKCKVSNKGLPSSIEKTISKAKGQPREPQVYTLPPCQEEMTKNQVSLWCLVKGFYPSDIAVEWESNGQPENNYKTTPPVLDSDGSFFLYSRLTVDKSRWQEGNVFSCSVMHEALHNHYTQKSLSLSLG heavy: EIQLQQSGPELVKPGASVKVSCKASGYSFTDYNMYWVKQSHGESLEWIGYIDPYNGGTRYNQKFKGKATLTVDKSSSTAFMHLNSLTSEDSAVYYCARNGHWDGAWFAYWGQGTLVTVSAASTKGPSVFPLAPCSRSTSESTAALGCLVKDYFPEPVTVSWNSGALTSGVHTFPAVLQSSGLYSLSSVVTVPSSSLGTKTYTCNVDHKPSNTKVDKRVESKYGPPCPPCPAPEAAGGPSVFLFPPKPKDTLMISRTPEVTCVVVDVSQEDPEVQFNWYVDGVEVHNAKTKPREEQFNSTYRVVSVLTVLHQDWLNGKEYKCKVSNKGLPSSIEKTISKAKGQPREPQVCTLPPSQEEMTKNQVSLSCAVKGFYPSDIAVEWESNGQPENNYKTTPPVLDSDGSFFLVSRLTVDKSRWQEGNVFSCSVMHEALHNHYTQKSLSLSLG light: DIQMNQSPSSLSASLGDTITITCHASQNINVWLSWYQQKPGNIPKLLIYKASNLHTGVPSRFSGSRSGTGFTLTISSLQPEDIATYYCHQGQSYPFTFGSGTKLEIKRTVAAPSVFIFPPSDEQLKSGTASVVCLLNNFYPREAKVQWKVDNALQSGNSQESVTEQDSKDSTYSLSSTLTLSKADYEKHKVYACEVTHQGLSSPVTKSFNRGEC | 18.3 | 145
